Laboratory results reported in the supplement of paper PMC10567573.

B1: AUP1 (parent)
chain: FCASTRLPPTPLLLFPEEEATNGR
B2: ZNF649 (parent)
chain: LVAHQRYHTGKTPFVCPECGQPCS

Variants of: B1
Test: protein stability index of a GFP-peptide fusion (GPS, HEK-293T) (PSI 1-6); higher = more stable
Conditions: c terminus: a fixed tail appended
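Further: lentivirally expressed fusions sorted by FACS into six bins by GFP to DsRed ratio, PSI derived from sequencing read proportions per bin multiplied by bin number.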

Protein stability index of substitutions, site by site:
R24: Y 1.88 | V 2.85 | W 1.34

Variants of: B2
Test: as above
Conditions: c terminus: a fixed tail appended

Protein stability index: each site, then its substitutions
Q5: W 1.16 | A 3.22 | L 2.05 | Y 2.74 | P 3.32 | K 3.03 | I 3.78 | R 3.06 | G 2.98 | E 4.17 | T 3.07 | N 3.15 | D 3.74 | H 3.11 | M 2.24 | F 1.95 | S 3.14 | V 1.89 | C 2.86
T9: K 2.52 | A 2.77 | I 3.77 | N 3.05 | R 2.76 | G 3.53 | M 3.16 | E 3.7 | Y 3.31 | D 3.77 | L 2.92 | W 2.9 | C 2.65 | S 3.1 | H 2.6 | P 2.88 | Q 3.31 | F 3.62 | V 3.06
H8: T 3.26 | M 2.75 | I 3.21 | W 2.57 | C 3.05 | S 2.93 | F 2.49 | N 3.18 | L 2.93 | E 3.13 | P 3.67 | V 3.77 | G 2.52 | D 3.54 | Q 3.59 | K 2.57 | A 3.1 | Y 2.69 | R 2.53
V2: K 2.91 | I 3.1 | R 3.36 | E 4.4 | A 3.28 | Y 2.81 | L 3.09 | C 4.4 | M 3.34 | D 3.87 | G 3.81 | W 2.57 | N 3.39 | Q 3.62 | H 4.09 | P 3.5 | F 2.78 | S 3.49 | T 4.06
F14: L 3.7 | G 4.1 | I 3.61 | A 3.94 | D 4.18 | C 3.65 | K 3.28 | Y 3 | W 3.1 | H 3.02 | P 3.58 | E 4.44 | N 3.7 | Q 3.38 | T 4.22 | S 3.93 | M 3.25 | V 3.81 | R 3.38
K11: N 3.48 | H 3.35 | Y 3.07 | V 4.02 | C 3.39 | M 3.31 | F 2.81 | P 3.06 | R 3.75 | D 3.45 | S 3.77 | L 3.49 | G 3.45 | Q 3.67 | I 3.31 | A 3.98 | E 3.67 | T 3.19 | W 2.91
P13: F 2.8 | C 2.71 | K 3.36 | Q 3.32 | A 2.94 | H 3.36 | I 2.76 | Y 3.26 | L 2.62 | S 3.65 | R 3.31 | D 3.46 | E 3.7 | V 3.32 | G 2.94 | T 4.15 | W 3.63 | M 3.27 | N 3.64
T12: D 3.06 | S 3.5 | W 2.96 | K 3.15 | I 3.7 | M 3.12 | H 2.56 | C 3.01 | F 2.77 | Q 2.68 | P 3.2 | R 2.91 | V 3.13 | A 3.49 | Y 3.02 | G 3.04 | N 3.39 | L 2.96 | E 3.86
A3: D 4.3 | C 4.11 | V 2.46 | F 2.23 | S 3.58 | W 2.57 | E 4.14 | P 3.24 | H 3.59 | I 3.32 | M 2.71 | R 3.14 | Y 2.38 | G 3.68 | T 3.47 | N 2.71 | L 2.69 | Q 3.68 | K 3.41
H4: K 2.49 | I 2.26 | M 2.76 | P 3.4 | D 3.98 | N 3.33 | G 3.42 | V 2.97 | W 2.72 | Q 3.61 | T 3.17 | R 2.77 | E 3.31 | L 1.81 | C 4.02 | S 2.87 | Y 2.64 | F 2.76 | A 3.02
Y7: P 4.04 | F 3.2 | C 2.59 | A 3.83 | M 3.67 | Q 4.14 | D 4.17 | N 3.73 | T 3.28 | W 2.38 | H 3.56 | L 2.93 | S 3.18 | V 3.44 | E 4.45 | I 3.21 | R 2.75 | K 3.31 | G 3.68
V15: A 3.33 | C 2.88 | M 3.3 | W 2.67 | T 3.11 | I 2.74 | H 2.4 | N 3.51 | R 3.06 | Y 2.96 | S 3.19 | E 3.66 | F 2.76 | L 3.2 | Q 3.36 | P 3.77 | D 3.83 | K 2.42 | G 3.03
L1: H 3.48 | M 3.25 | G 3.67 | C 4.67 | A 3.76 | I 2.95 | Q 3.87 | K 3.65 | N 4.24 | V 3.35 | R 3.63 | F 2.57 | S 4.24 | W 2.46 | E 4.06 | T 3.93 | Y 1.22 | P 4.28 | D 3.6
E18: D 3.18 | H 2.38 | C 2.82 | K 2.54 | I 2.61 | F 2.56 | G 1.8 | A 2.99
P17: R 2.26 | F 2.16 | L 2.26 | M 2.77 | H 2.86 | D 3.35 | S 3.37 | N 3.48 | W 2.37 | T 3.04 | A 2.84 | G 2.92 | K 3.37 | I 2.73 | V 2.59 | Q 3.51 | E 3.16 | Y 2.48 | C 2.98
R6: H 4.1 | I 3.12 | V 2.98 | G 3.86 | K 3.44 | A 3.46 | E 3.74 | T 3.48 | D 3.58 | C 4.33 | N 3.37 | S 3.96 | Q 3.6 | Y 3.12 | L 2.93 | P 3.65 | M 3.19 | W 3.1 | F 2.69
C16: M 2.72 | Q 3.03 | A 2.35 | F 2.28 | H 2.64 | L 2.5 | T 2.27 | P 3.48 | W 1.86 | K 2.75 | S 3.16 | D 3.8 | G 2.91 | E 3.01 | R 2.89 | N 2.88 | V 2.58 | I 2.14 | Y 2.37
G10: V 2.85 | Y 2.82 | A 3.15 | L 3.64 | W 3.9 | S 2.4 | I 3.5 | R 2.78 | E 3.57 | Q 3.28 | C 3.44 | M 3.44 | F 3.44 | T 3.01 | K 2.83 | N 3.37 | P 3.09 | D 3.96 | H 3.24
